The record followed here is EP2644619A1 (Spiber Technologies AB, dated 2013).

Data set [1] has as its target NT (wild type N-terminal fragment of Euprosthenops australis major spidroin 1) (Euprosthenops australis). As to the kind of experiment: tryptophan fluorescence, 5 uM protein, between pH 7 and pH 6; the filing uses it as a probe of dimerisation.
Data set [2] concerns the molecule itself. As to the kind of experiment: comparative structural studies, pH lowered from 7 to 6 (self-association).

B1: NT (wild type N-terminal fragment of Euprosthenops australis major spidroin 1) (protein)
chain: GSGNSHTTPWTNPGLAENFMNSFMQGLSSMPGFTASQLDDMSTIAQSMVQSIQSLAAQGRTSPNKLQALNMAFASSMAEIAASEEGGGSLSTKTSSIASAMSNAFLQTTGVVNQPFINEITQLVSMFAQAGMNDVSA
B1: the red-shift in fluorescence emission in data set [1] was found to be 15 nm.

B2: NT^A72R (other)
chain: GSGNSHTTPWTNPGLAENFMNSFMQGLSSMPGFTASQLDDMSTIAQSMVQSIQSLAAQGRTSPNKLQALNMRFASSMAEIAASEEGGGSLSTKTSSIASAMSNAFLQTTGVVNQPFINEITQLVSMFAQAGMNDVSA
notes: also called mutated NT; mutant NT
For the molecule B2, in data set [2], the binding result is “no binding”.
